Data published in patent US20110144312A1 (Kyowa Kirin, published 2011).
Where a chain is given by its changes, count along the chain named. One block for each binder: values may come before it.

Columns and labels:
[1] = molecular target: T1, SNP variant S159G of human IL-10Rα extracellular domain fused to the Fc portion of human IgG1 (human); experiment: ELISA with SNP variant Fc fusion
T1 construct: The entry already holds the change and includes the signal peptide

[2] = molecular target: T2, SNP variant R212E of human IL-10Rα extracellular domain fused to the Fc portion of human IgG1 (human); experiment: ELISA with SNP variant Fc fusion
T2 construct: The entry already holds the change and includes the signal peptide

[3] = molecular target: T3, SNP variant L61V of human IL-10Rα extracellular domain fused to the Fc portion of human IgG1 (human); experiment: ELISA with SNP variant Fc fusion
T3 construct: The entry already holds the change and includes the signal peptide; also called L61I; L611

[4] = molecular target: T4, SNP variant V233M of human IL-10Rα extracellular domain fused to the Fc portion of human IgG1 (human); experiment: ELISA with SNP variant Fc fusion
T4 construct: The entry already holds the change and includes the signal peptide
Target sequence in this assay (chain, as listed by the source V233M V233M limits assumed): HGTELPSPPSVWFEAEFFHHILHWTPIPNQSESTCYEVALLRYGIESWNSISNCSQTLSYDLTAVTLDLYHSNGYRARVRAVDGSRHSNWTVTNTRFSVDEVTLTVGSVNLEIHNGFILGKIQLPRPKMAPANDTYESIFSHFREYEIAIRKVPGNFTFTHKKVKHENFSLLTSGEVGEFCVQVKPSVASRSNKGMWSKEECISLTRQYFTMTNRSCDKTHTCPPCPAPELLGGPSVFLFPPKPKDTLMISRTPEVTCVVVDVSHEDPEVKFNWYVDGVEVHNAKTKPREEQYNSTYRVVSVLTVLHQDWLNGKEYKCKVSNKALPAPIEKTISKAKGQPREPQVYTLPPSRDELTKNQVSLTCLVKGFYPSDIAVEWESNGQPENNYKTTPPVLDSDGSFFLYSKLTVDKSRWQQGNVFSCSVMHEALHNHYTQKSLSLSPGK

human IL-10Rα on cells = molecular target: T5, human IL-10Rα on cells (human, UniProt Q13651 22-578); experiment: flow cytometry on RPMI-8226 cells; detection anti-human IgG-PE [B]
T5 construct: Full-length entry with signal peptide; endogenous on PBMC and RPMI-8226 cells, transfected in EL-4 and CHO-K1 cells; also called IL-10R on RPMI-8226 cells; IL-10Rα on human PBMC, lymphocytes and monocytes
T5 sequence: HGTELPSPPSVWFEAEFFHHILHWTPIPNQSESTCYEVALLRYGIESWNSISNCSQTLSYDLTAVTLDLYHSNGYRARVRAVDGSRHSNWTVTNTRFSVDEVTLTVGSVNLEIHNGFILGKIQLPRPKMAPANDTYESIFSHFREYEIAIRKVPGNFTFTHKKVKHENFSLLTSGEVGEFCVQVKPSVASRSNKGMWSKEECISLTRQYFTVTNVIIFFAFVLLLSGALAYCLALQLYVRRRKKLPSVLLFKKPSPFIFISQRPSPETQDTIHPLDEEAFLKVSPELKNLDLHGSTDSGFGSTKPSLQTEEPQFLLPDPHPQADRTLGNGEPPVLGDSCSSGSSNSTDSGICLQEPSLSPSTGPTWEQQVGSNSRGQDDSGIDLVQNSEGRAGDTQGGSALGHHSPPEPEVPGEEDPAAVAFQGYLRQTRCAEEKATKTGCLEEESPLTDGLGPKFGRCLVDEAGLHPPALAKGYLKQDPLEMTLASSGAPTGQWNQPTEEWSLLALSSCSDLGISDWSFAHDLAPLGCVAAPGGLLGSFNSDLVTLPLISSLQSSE
From the text: A) Titration of anti-IL-10Rα antibodies binding to coated human IL-10Rα:hFc. Binding was detected with anti-human kappa-HRP, anti-mouse IgG-HRP, or anti-rat IgG-HRP. […] RPMI-8226 cells were labeled with anti-human IL-10Rα antibodies at various concentrations and detected with anti-human IgG-PE. The commercial rat anti-human IL-10Rα antibody 3F9 was detected with anti-rat IgG-PE. The geometric mean fluorescence intensity (geo mean) data are shown.
The cells were washed once in staining buffer: PBS+2% FBS+0.01% NaN₃+10 mM EDTA, then blocked with 20 μg/ml rabbit IgG (Jackson Immunoresearch), resuspended in serum, supernatant, purified anti-human IL-10Rα antibodies, or isotype control antibodies in a final volume of 50 μl. The cells were incubated with the antibodies on ice for 20 minutes, washed twice in staining buffer then resuspended in an anti-human IgG secondary antibody for 20 minutes. […] If the biotinylated antibody was used, antibody binding was detected by labeling with streptavidin-phycoerythrin (SA-PE) for 20 minutes. Binding of rat and mouse anti-hIL-10Rα antibodies were detected with either biotinylated or PE conjugated anti-rat or anti-mouse IgG antibodies from multiple sources (Jackson Immunoresearch; Southern Biotech Associates; and BD Pharmingen, San Diego, Calif.). […]

[5] = molecular target: T6, Biotin-SGSTLDLYHSNGYRARVRAVDG-NH2 (human, N-terminal biotin, C-terminal amide (-NH2)); experiment: dot blot on PVDF or nitrocellulose membrane
T6 peptide: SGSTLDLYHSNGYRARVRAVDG
Description: (§1) Methods to detect antibody binding to peptides derived from the human IL-10Rα sequence: Multiple methods were employed to detect binding of anti-human IL-10Rα antibodies to peptides derived from the extracellular domain of human IL-10Rα that have been reported by Reineke, et al. (Reineke, et al., Protein Sci 7:951 (1998)) to be included in the IL-10 binding site of the receptor. The following amide synthesized peptides were tested: Ac-[…]-NH2, Ac-[…]-NH2, Ac-[…]-NH2, Ac-[…]-NH2, Ac-[…]-NH2 (SEQ ID NO. 81-85). In addition, the following biotinylated peptides were tested: Biotin-[…]-NH2, Biotin-[…]-NH2 (SEQ ID NO. 86-87). The amide peptides were synthesized by A&A Labs, LLC (San Diego, Calif.) and the biotinylated peptides were synthesized by GenScript (Piscataway, N.J.) both at >95% purity and reconstituted at 20 mg/ml in DMSO. In one assay design peptides were spotted at 5 μg/spot in PBS onto PVDF membranes or nitrocellulose membranes that had been prepared according to the manufacturer's instructions. The membranes were incubated with anti-IL-10Rα antibodies using standard Western blotting methods (e.g. Towbin, et al., Proc Natl Acad Sci 76:4350 (1979)). Native human IL-10Ra:hFc and heat denatured human IL-10Ra:hFc were also spotted at 1 μg/spot on the membranes as controls. Negative controls included an irrelevant peptide and isotype controls. […] None of the antibodies bound to the spotted denatured protein or to any of the peptides derived from the human IL-10Ra extracellular domain or the irrelevant peptide.

[6] = molecular target: T7, Biotin-SGSTYSIFSHFREYEIAIRKV-NH2 (human, N-terminal biotin, C-terminal amide (-NH2)); experiment: dot blot on PVDF or nitrocellulose membrane
T7 peptide: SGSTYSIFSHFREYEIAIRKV
Description: as §1

[7] = molecular target: T4, SNP variant V233M of human IL-10Rα …; experiment: ELISA, coated SNP variant Fc fusion V233M [F]
[8] = molecular target: T8, SNP variant V113I of human IL-10Rα extracellular domain fused to the Fc portion of human IgG1 (human); experiment: ELISA, coated SNP variant Fc fusion V113I [C]
T8 construct: The entry already holds the change and includes the signal peptide; also called V1131

T1 sequence (chain, as listed by the source S159G S159G limits assumed): as the sequence (chain, as listed by the source V233M V233M limits assumed) above, with S138G, M212V counted along it
T3 sequence (chain, as listed by the source L61V L61V limits assumed): as the sequence (chain, as listed by the source V233M V233M limits assumed) above, with L40V, M212V counted along it
T2 sequence (chain, as listed by the source R212E R212E limits assumed): as the sequence (chain, as listed by the source V233M V233M limits assumed) above, with R191E, M212V counted along it

binding result [1]: binds | binding result [2]: binds | binding result [3]: binds | binding result [4]: binds | EC50 (read off the curve) (human IL-10Rα on cells): ~0.5 µg/mL
B1: 136C5 (antibody, V domains shown)
VH: EVQLVESGGGLVQPGGSLRLSCAASGFTFSSYSMNWVRQAPGKGLEWVSYISTGSSTIYYADSVKGRFTISRDNAKNSLYLQMNSLRDEDTAVYYCARENYYGSGSYEDYFDYWGQGTLVTVSS
VL: EIVLTQSPATLSLSPGERATLSCRASQSVSSYLAWYQQKPGQAPRLLIYDASNRATGIPARFSGSGSGTDFTLTISSLEPEDFAVYYCQQRSNWPIFTFGPGTKVDIK
notes: Hybridoma antibody, human IgG1, kappa light chain; also called human anti-human IL-10Rα monoclonal antibody 136C5; hybridoma deposit PTA-9131

binding result [5]: no binding (tested: 5 µg/spot) | binding result [6]: no binding (tested: 5 µg/spot) | binding result [7]: binds | EC50 (read off the curve) (human IL-10Rα on cells): ~0.5 µg/mL | binding result [8]: binds
B2: 136C8 (antibody, V domains shown)
VH: B1 VH with G54R
VL: B1 VL
notes: Hybridoma antibody, human IgG2, kappa light chain; also called human anti-human IL-10Rα monoclonal antibody 136C8; hybridoma deposit PTA-9132
